Assay results published in publication PMC3069017 (Molecular Biology of the Cell, 2011).

Target: T1, GST-IFT54 (mouse, UniProt Q149C2 1-625)
T1 sequence (looked up): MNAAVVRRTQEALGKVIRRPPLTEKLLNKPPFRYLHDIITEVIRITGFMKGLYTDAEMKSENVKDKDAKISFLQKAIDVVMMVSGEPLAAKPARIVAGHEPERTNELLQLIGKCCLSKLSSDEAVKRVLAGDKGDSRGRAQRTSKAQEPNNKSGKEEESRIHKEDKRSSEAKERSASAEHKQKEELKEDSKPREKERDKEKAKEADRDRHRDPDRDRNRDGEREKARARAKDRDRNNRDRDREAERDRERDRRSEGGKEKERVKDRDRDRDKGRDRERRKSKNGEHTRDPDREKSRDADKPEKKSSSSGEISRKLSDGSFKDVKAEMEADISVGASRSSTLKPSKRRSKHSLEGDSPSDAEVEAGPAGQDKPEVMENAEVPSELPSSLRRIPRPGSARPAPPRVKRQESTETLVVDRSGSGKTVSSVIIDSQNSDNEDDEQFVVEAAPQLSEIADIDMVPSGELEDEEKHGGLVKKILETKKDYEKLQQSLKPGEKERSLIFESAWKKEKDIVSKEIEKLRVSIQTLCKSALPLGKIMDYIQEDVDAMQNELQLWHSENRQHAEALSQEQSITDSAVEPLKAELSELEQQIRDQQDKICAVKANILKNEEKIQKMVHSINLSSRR
Assay: pull-down

binding result: binds
B1: purified, untagged IFT20 (natural protein, mouse, UniProt Q61025-1 1-132, looked up)
chain: MAKDILGEAGLHFDELNKLRVLDPEVTQQTVELKEECKDFVDKIGQFQKIVGGLIELVDQLAKEAENEKMKAIGARNLLKSIAKQREAQQQQLQALIAEKKTQLERYRVEYEALCKVEAEQNEFIDQFIFQK
